Measurements from the supplement of paper PMC10724198.
± gives the standard deviation of the averaged measurements.

tested on: Saccharomyces cerevisiae; assay: protein stability index of tFT-peptide fusion (C-terminal peptide) (PSI (0-1 scale)); higher = more stable (slower turnover); conditions: genetic background: wild type; temperature: 30 C
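Note: PSI is a weighted mean of sequencing reads over stability bins, variants kept only with over 10 reads, mCherry proximal and sfGFP distal, peptide attached via GGGS linker.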

Row | Sequence | protein stability index
1 | SFGLSYYFRNSL | 0.731 ± 0.066
2 | RGRRPRPGGTGT | 0.641 ± 0.016
3 | QKKNSKKIKPKR | 0.694 ± 0.026
4 | LSAPPPPPPPSP | 0.7026 ± 0.003
5 | PRRYPPPSPRTS | 0.704 ± 0.016
6 | KTKKNKKKKINK | 0.692 ± 0.075
7 | GSAGYLCQCSDI | 0.681 ± 0.017
8 | GGGARQAGGDNI | 0.666 ± 0.045
9 | GGGGGLRVSCGT | 0.679 ± 0.083
10 | DLYQRPPLPKFS | 0.688 ± 0.036
11 | APRPLPPPPSPC | 0.726 ± 0.027
12 | RGGGEWGKEDSQ | 0.705 ± 0.019
13 | APAPELRRSPTP | 0.707 ± 0.01
14 | KDKKKENKNNGE | 0.6787 ± 0.0036
15 | PPPLPPFPPAPP | 0.642 ± 0.012
16 | PPPGPPSAPPPH | 0.706 ± 0.047
17 | PTPSLPCPDHPL | 0.693 ± 0.0098
18 | PPSPSPPSPPSP | 0.654 ± 0.032
19 | RERGVSVKLGGG | 0.677 ± 0.026
20 | GEYYAPVVGRRF | 0.7121 ± 0.0031
21 | RGWVEWGVRASE | 0.749 ± 0.06
22 | AFPGCRPFRPLH | 0.709 ± 0.056
23 | LRASVFPVLDMC | 0.718 ± 0.075
24 | KKRKVKKKKPNG | 0.581 ± 0.033
25 | LPLPVPPPPLPS | 0.654 ± 0.034
26 | IAFLSRCWSFYL | 0.49 ± 0.014

Row | Sequence | protein stability index
27 | SPFPFLLTAPLA | 0.538 ± 0.0094
28 | SLQTHCHKGPLS | 0.718 ± 0.0099
29 | ASPYTVTPLTNS | 0.693 ± 0.016
30 | NRVRVNSSYGRD | 0.71 ± 0.018
31 | PRASSPPPPTAS | 0.666 ± 0.024
32 | SFFFFSPFSRLS | 0.693 ± 0.032
33 | GYRRTGGLHGVV | 0.716 ± 0.034
34 | GLFPGSRLRLVE | 0.666 ± 0.011
35 | SMFGSVGLMPCG | 0.656 ± 0.02
36 | GVSAPGDAGAVP | 0.654 ± 0.015
37 | RSSFCILCCLFS | 0.557 ± 0.024
38 | EISKKKKQTKRK | 0.768 ± 0.12
39 | TNFSRCFLFRSW | 0.629 ± 0.025
40 | LHPRCVLPHFRV | 0.627 ± 0.032
41 | FLSRCSVRPVTY | 0.668 ± 0.021
42 | SPVPIPPSPSRP | 0.687 ± 0.019
43 | GGGGWGGAGLVG | 0.704 ± 0.014
44 | PPLSPLAPPSHP | 0.727 ± 0.069
45 | GQLAERYRPARP | 0.6903 ± 0.003
46 | GAPVGRRPGRDR | 0.703 ± 0.035
47 | HRLTFLDTPSGH | 0.781 ± 0.076
48 | EYKKKKTKANDT | 0.6944 ± 0.0015
49 | SPLSLPSIPFGV | 0.672 ± 0.075
50 | IERRCGRCMCFM | 0.783 ± 0.1
51 | PPSQRPPPPPPL | 0.704 ± 0.023
52 | PPAPPPPLPPPP | 0.64 ± 0.017

Row | Sequence | protein stability index
53 | PHPPSDLLPYRP | 0.691 ± 0.022
54 | RPWAKGTGGRCY | 0.723 ± 0.21
55 | LVRNGLCCTSRQ | 0.704 ± 0.029
56 | RPRQAAAQGGAR | 0.694 ± 0.036
57 | SGSITAGLVRNV | 0.6152 ± 0.0051
58 | YRSTPTGPPRPT | 0.758 ± 0.13
59 | RKKENKIANRKI | 0.6893 ± 0.00094
60 | AGAFVGAPVGGE | 0.713 ± 0.026
61 | RSLSLAPSFPLP | 0.697 ± 0.0086
62 | VYMAGSFSRLFQ | 0.723 ± 0.034
63 | SRDIKTDCLRRV | 0.688 ± 0.078
64 | FLLTVFPPLFFP | 0.704 ± 0.011
65 | RPGGVRVVSIQL | 0.672 ± 0.06
66 | RNVALPSRKAQY | 0.715 ± 0.016
67 | EEQKAKQKQEYG | 0.639 ± 0.077
68 | VGLGVLWVMGKV | 0.667 ± 0.082
69 | PFRSPYQRPLHY | 0.689 ± 0.039
70 | GLNGGRLEGERR | 0.731 ± 0.11
71 | CFPYFCGFLGPL | 0.697 ± 0.031
72 | FPRSMPSPPSSE | 0.623 ± 0.035
73 | LRNGSFFLVFSC | 0.531 ± 0.016
74 | SSFVFGLCGGVA | 0.694 ± 0.03
75 | TSRCQIGIALGG | 0.695 ± 0.12
76 | PPPGPPPPPPYP | 0.656 ± 0.12
77 | GNRVGQREEIEK | 0.655 ± 0.023
78 | IKLVVLGPLVWF | 0.625 ± 0.018

Row | Sequence | protein stability index
79 | SRIPARCDGKCI | 0.6722 ± 0.0037
80 | MVRRDGMTVSLG | 0.719 ± 0.028
81 | LCLGFDGAFPLF | 0.725 ± 0.014
82 | PPPASPLPPASP | 0.667 ± 0.031
83 | RFCQSHTSVSSF | 0.652 ± 0.039
84 | VLLARVRRSSDS | 0.649 ± 0.093
85 | IHQQEVKSRICT | 0.592 ± 0.031
86 | SVESAVRALQPT | 0.731 ± 0.042
87 | GGWKINYVEENR | 0.663 ± 0.011
88 | PLPLHPSALPSL | 0.676 ± 0.05
89 | HSHTHRHSHGTR | 0.7 ± 0.083
90 | LWSYFLGLHPSD | 0.773 ± 0.038
91 | LAGLAVASVRRE | 0.683 ± 0.013
92 | KIKKKKYTKYTK | 0.553 ± 0.052
93 | CDVLNQTRKRHK | 0.7028 ± 0.0019
94 | ECGLGGWGGLGV | 0.657 ± 0.078
95 | VSAPLGRFSGLV | 0.685 ± 0.036
96 | GVRRSQSCPVRS | 0.7065 ± 0.0051
97 | GGGFRVLCVGLG | 0.627 ± 0.037
98 | RWTRFISLTGTG | 0.637 ± 0.064
99 | FSRSDREIFPRN | 0.585 ± 0.07
100 | AFPHRLTRGYDQ | 0.666 ± 0.038
101 | RISPRVSARLCI | 0.616 ± 0.007
